Experimental data published in the supplement of paper PMC11811203.

B1: THAP1; numbered along this chain (parent)
chain: MVQSCSAYGCKNRYDKDKPVSFHKFPLTRPSLCKEWEAAVRRKNFKPTKYSSICSEHFTPDCFKRECNNKLLKENAVPTIFLCTEPHDKKEDLLEPQEQLPPPPLPPPVSQVDAAIGLLMPPLQTPVNLSVFCDHNYTVEDTMHQRKRIHQLEQQVEKLRKKLKTAQQRCRRQERQLEKLKEVVHFQKEKDDVSERGYVILPNDYFEIVEVPA

Variants of: B1
Experiment: THAP1 transcriptional activity (GFP+/GFP- enrichment relative to wild-type constructs) (ratio to WT); higher = more THAP1 activity (PSMB5 reporter activation)
Conditions: with PSMB5 promoter-GFP reporter
In short: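 Activity values are replicate-mean bright/dim read fold changes divided by the mean of wild-type synonymous constructs. They come from a human THAP1 site-saturation library (residues 2–213, each changed to all 20 amino acids) delivered by lentivirus at MOI ~0.3, in duplicate, into THAP1-knockout HEK-293T cells with mClover3 at endogenous PSMB5. BFP+ cells were sorted into GFP-dim and GFP-bright bins after five days, and variants were counted by Illumina sequencing of genomic DNA amplicons.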
With MVQSCSAYGCKNRYDKDKPVSFHKFPLTRPSLCKEWEAAVRRKNFKPTKYSSICSEHFTPDCFKRECNNKLLKENAVPTIFLCTEPHDKKEDLLEPQEQLPPPPLPPPVSQVDAAIGLLMPPLQTPVNLSVFCDHNYTVEFTMHQRKRIHQLEQQVEKLRKKLKTAQQRCRRQERQLEKLKEVVHFQKEKDDVSERGYVILPNDYFEIVEVPA [D141F] the THAP1 transcriptional activity was 0.552. In the case of MVQSCSAYGCKNRYDKDKPVSFHKFPLTRPSLCKEWEAAVRRKNFKPTKYSSICSEHFTPDKFKRECNNKLLKENAVPTIFLCTEPHDKKEDLLEPQEQLPPPPLPPPVSQVDAAIGLLMPPLQTPVNLSVFCDHNYTVEDTMHQRKRIHQLEQQVEKLRKKLKTAQQRCRRQERQLEKLKEVVHFQKEKDDVSERGYVILPNDYFEIVEVPA [C62K], the THAP1 transcriptional activity is reported as 0.21. For MVQSCSAYGCKNRYDKDKPVSFHKFPLTRPSLCKEWEAAVRRKNFKPTKYSSICSEHFTPDCFKRECNNKLLKENAVPTIFLCTEPHDKKEDLLEPQEQLPPPPLPPPVSQVDAAIGLLMPPLQTPVNLSVFCDHNYTVEDTMHQRKRIHQLEQQVEKLRKKLKTAQQRCRRQERQLEKLKEVVHFQKEKDDVSERGYVILPNIYFEIVEVPA [D204I], the THAP1 transcriptional activity was 0.437. MVQSCSAYGCKNRYDKDKPVSFHKFPLTRPSLCKEWEAAVRRKNFKPTKYSSICSEHFTPDCFKRECNNKLLKENAVPTIFLCTEPHDKKEDLLEPQEQLPPPPLPPPVSQVDAAIGLLMPPLQTPVNLSVFCDHNYTVEDTMHQRKRIHQLEQQVEKLRKKLKTAQQRCRRQERQLEKDKEVVHFQKEKDDVSERGYVILPNDYFEIVEVPA [L180D] gave a THAP1 transcriptional activity of 0.256. MVQSCSAYGCKNRYDKDKPVSFHKFPLTRPSLCKTWEAAVRRKNFKPTKYSSICSEHFTPDCFKRECNNKLLKENAVPTIFLCTEPHDKKEDLLEPQEQLPPPPLPPPVSQVDAAIGLLMPPLQTPVNLSVFCDHNYTVEDTMHQRKRIHQLEQQVEKLRKKLKTAQQRCRRQERQLEKLKEVVHFQKEKDDVSERGYVILPNDYFEIVEVPA [E35T] was tested, and the THAP1 transcriptional activity was 0.473. For MVQSCSAYGCKNRYDKDKPVSFLKFPLTRPSLCKEWEAAVRRKNFKPTKYSSICSEHFTPDCFKRECNNKLLKENAVPTIFLCTEPHDKKEDLLEPQEQLPPPPLPPPVSQVDAAIGLLMPPLQTPVNLSVFCDHNYTVEDTMHQRKRIHQLEQQVEKLRKKLKTAQQRCRRQERQLEKLKEVVHFQKEKDDVSERGYVILPNDYFEIVEVPA [H23L], the THAP1 transcriptional activity was 0.0839. MVQSCSAYGCKNRYDKDKPVSFHKFPLTRPSLCKEWEAAVRRKNFKPTKYSSICSEHFTPDCFKRECNNKLLKENAVPTIFLCTEPHDKKEDLLEPQEQLPPPPLPPPVSQVDAAIGLLMPPLQTPVNLSVFCDHNYTVEDTMHQRKRIHQLEQQVEKLRKKLKTAQQRCRRQERQLEKLKEVVHFQKEKDDVSERGYVILPFDYFEIVEVPA [N203F] was tested, and the THAP1 transcriptional activity was 0.728. In the case of MVQSCSAYGCKNRYDKDKPVSFHKFPLTRPSLCKEWEAAVRRKNFKPTKYSSICSEHFTPDCFKRECNNKLLKENAVPTIFLCTEPHDKKEDLLEPQEQLPPPPLPPPVSQVDAAIGLLMPPLQTEVNLSVFCDHNYTVEDTMHQRKRIHQLEQQVEKLRKKLKTAQQRCRRQERQLEKLKEVVHFQKEKDDVSERGYVILPNDYFEIVEVPA [P126E], the THAP1 transcriptional activity is reported as 0.744. For MVQSASAYGCKNRYDKDKPVSFHKFPLTRPSLCKEWEAAVRRKNFKPTKYSSICSEHFTPDCFKRECNNKLLKENAVPTIFLCTEPHDKKEDLLEPQEQLPPPPLPPPVSQVDAAIGLLMPPLQTPVNLSVFCDHNYTVEDTMHQRKRIHQLEQQVEKLRKKLKTAQQRCRRQERQLEKLKEVVHFQKEKDDVSERGYVILPNDYFEIVEVPA [C5A], the THAP1 transcriptional activity was 0.147. Variant MVQSCSAYGCKNRYDKDKPVSFHKFPLTRPSLCKEWEAAVRRKNFKPTKYSSICSEHFTPDCFKRECNNKLLKENAVPTIFLCTEPHDKKEDLLEPQEQLPPPPLPPPKSQVDAAIGLLMPPLQTPVNLSVFCDHNYTVEDTMHQRKRIHQLEQQVEKLRKKLKTAQQRCRRQERQLEKLKEVVHFQKEKDDVSERGYVILPNDYFEIVEVPA [V109K] has a THAP1 transcriptional activity of 2.39. Variant MVQSCSAYGCKNRYDKDKPVSFHKFPLTRPSLCKEWEAAVRRKNFKPTKYSSICSEHFTPDCFKRECNNKLLKENAVPTIFLCTEPHDKKEDLLEPQEQLPPPPLPPPVSQVDAAIGLLMPPLQTPVNLSVFCDHNYTVEDTMHQRLRIHQLEQQVEKLRKKLKTAQQRCRRQERQLEKLKEVVHFQKEKDDVSERGYVILPNDYFEIVEVPA [K147L] has a THAP1 transcriptional activity of 0.458. Work on MVQSCSAYGCKNRYDKDKPVSFHKFPLTRPSLCKEWEAAVRRKNFKPTKYSSICSEHFTPDCFKRECNNKLLKENAVPTIFLCTEPHDKKEDLLEPQEQLPPPPLPPPVSQVDAAQGLLMPPLQTPVNLSVFCDHNYTVEDTMHQRKRIHQLEQQVEKLRKKLKTAQQRCRRQERQLEKLKEVVHFQKEKDDVSERGYVILPNDYFEIVEVPA [I116Q] yielded a THAP1 transcriptional activity of 0.902. In the case of MVQSCSAYGCKNRYDKDKPVSFHKFPLTRPSLCKEWEAAVRRKNFKPTKYSSICSEHFTPDCFKRECNNELLKENAVPTIFLCTEPHDKKEDLLEPQEQLPPPPLPPPVSQVDAAIGLLMPPLQTPVNLSVFCDHNYTVEDTMHQRKRIHQLEQQVEKLRKKLKTAQQRCRRQERQLEKLKEVVHFQKEKDDVSERGYVILPNDYFEIVEVPA [K70E], the THAP1 transcriptional activity is reported as 0.134. MVQSCSAYGCKNRYDKDKPVSFHKFPLTRPSLCKEWEAAVRRKNFKPTKYSSICSEHFTPDCFKRRCNNKLLKENAVPTIFLCTEPHDKKEDLLEPQEQLPPPPLPPPVSQVDAAIGLLMPPLQTPVNLSVFCDHNYTVEDTMHQRKRIHQLEQQVEKLRKKLKTAQQRCRRQERQLEKLKEVVHFQKEKDDVSERGYVILPNDYFEIVEVPA [E66R] gave a THAP1 transcriptional activity of 0.539. In the case of MVQSCSAYGCKNRYDKDKPVSFHKFPLTRPSLCKEWEAAVRRKNFKPTKYSSICSEHFTPDCFKRECNNKLLKENAVPTIFLCTEPHDKKEDLLEPQEQLPPPPLPPPVSQVDAAIGLLMPPLQTPVNLSVFCDHNYTVEDTMHQRKRINQLEQQVEKLRKKLKTAQQRCRRQERQLEKLKEVVHFQKEKDDVSERGYVILPNDYFEIVEVPA [H150N], the THAP1 transcriptional activity is reported as 0.896. In the case of MVQSCSAYGCKNRYDKDKPVSFHKFPLTRPSLCKEWEAAVRRKNFKPTKYSSICSEHFTPDCFKRECNNKLLKENAVPTIFLCTEPHDKKEDLLEPQEQLPPPPLPPPVSQVDAAIGLLMPPLQTPVNLSVFCDHNYTVQDTMHQRKRIHQLEQQVEKLRKKLKTAQQRCRRQERQLEKLKEVVHFQKEKDDVSERGYVILPNDYFEIVEVPA [E140Q], the THAP1 transcriptional activity is reported as 1.61. MVQSCSAYGCKNRYDKDKPVSFHKFPLTRPSLCKEWEAAVRRKNFKPTKYSSICSEHFTPDCFKRECNNKLLKENAVPTIFLCTEPHDKKEDLLEPQEQLPPPPLPPPVSQVDAAIGLLMPPLQTPVNLSVFCDHNYTVEDTMHQRKRIHQLEQQVEKLRKKLKTAQQRCRRQERQLEKLKEVVHFQKEKDDVSERGYVILPNDYFEKVEVPA [I208K] showed a THAP1 transcriptional activity of 0.59. MVQSCSAYGCKNRYDKDKPVSFHKFPLTRPSLCKEWEAAVRRKNFKPTKYSSICSEHFTPDCFKRECNNKLLKENAVPTIFLCTEPHDKKEDLLEPQEQLPPPPLPPPVSQVDAAIQLLMPPLQTPVNLSVFCDHNYTVEDTMHQRKRIHQLEQQVEKLRKKLKTAQQRCRRQERQLEKLKEVVHFQKEKDDVSERGYVILPNDYFEIVEVPA [G117Q] showed a THAP1 transcriptional activity of 0.581. Work on MVQSCSAYGCKNRYDKDKPVSFHKFPLTRPSLCKEWEAAVRRKNFKPTKYSSICSEHFTPDCFKRECNNKLLKENAHPTIFLCTEPHDKKEDLLEPQEQLPPPPLPPPVSQVDAAIGLLMPPLQTPVNLSVFCDHNYTVEDTMHQRKRIHQLEQQVEKLRKKLKTAQQRCRRQERQLEKLKEVVHFQKEKDDVSERGYVILPNDYFEIVEVPA [V77H] yielded a THAP1 transcriptional activity of 0.287. MVQSCSAYGCKNRYDKDKPVSFHKFPLTRPSLCKEWEAAVRRKNFKPTKYSSICSEHFTPMCFKRECNNKLLKENAVPTIFLCTEPHDKKEDLLEPQEQLPPPPLPPPVSQVDAAIGLLMPPLQTPVNLSVFCDHNYTVEDTMHQRKRIHQLEQQVEKLRKKLKTAQQRCRRQERQLEKLKEVVHFQKEKDDVSERGYVILPNDYFEIVEVPA [D61M] was tested, and the THAP1 transcriptional activity was 0.207. With MVQSCSAYGCKNRYDKDKPVSFHKFPLTRPSLCKEWEAAVRRKNFKPTKYSSICSEHFTPPCFKRECNNKLLKENAVPTIFLCTEPHDKKEDLLEPQEQLPPPPLPPPVSQVDAAIGLLMPPLQTPVNLSVFCDHNYTVEDTMHQRKRIHQLEQQVEKLRKKLKTAQQRCRRQERQLEKLKEVVHFQKEKDDVSERGYVILPNDYFEIVEVPA [D61P] the THAP1 transcriptional activity was 0.104. MVQSCSAYGCKNRYDKDKPVSFHKFPLTRPSLCQEWEAAVRRKNFKPTKYSSICSEHFTPDCFKRECNNKLLKENAVPTIFLCTEPHDKKEDLLEPQEQLPPPPLPPPVSQVDAAIGLLMPPLQTPVNLSVFCDHNYTVEDTMHQRKRIHQLEQQVEKLRKKLKTAQQRCRRQERQLEKLKEVVHFQKEKDDVSERGYVILPNDYFEIVEVPA [K34Q] was tested, and the THAP1 transcriptional activity was 0.971. In the case of MVQSCSAYGCKNRYDKDKPVSFHKFPLTRPSLCKEWEAAVRRKNFKPTKYSSICSEHFTPDCFKRECNNKLLKENAVPTIFLCTEPHDKKEDLLEPQEQLPPPPLPPPVSQVDAAIGLLMPPLQTPVNLSVFCDHNYTVEDTMHQRKRIHQLEQQVEKLRKKLKTAQQRCRRQERQLEYLKEVVHFQKEKDDVSERGYVILPNDYFEIVEVPA [K179Y], the THAP1 transcriptional activity is reported as 0.661. MVQSCSAYGCKNRYDKDKPVSFHKFPLTRPSLCKEWEAAVRRKNFKPTKYSSICSEHFTPDCFKRECNNKLLKENAVPTIFLETEPHDKKEDLLEPQEQLPPPPLPPPVSQVDAAIGLLMPPLQTPVNLSVFCDHNYTVEDTMHQRKRIHQLEQQVEKLRKKLKTAQQRCRRQERQLEKLKEVVHFQKEKDDVSERGYVILPNDYFEIVEVPA [C83E] gave a THAP1 transcriptional activity of 0.913. MVQSCSAYGCKNRYDKDKPVSFHKFPLTRPSLCKEWEAAVRRKNFKPTKYSSICSEHFTPDCFKRECNNKLLKENAVPTIFLCTEPHDKKEDLLEPQEQLPPPPLPPPVSQVDAAIGLLMPPLQTPVNLSVFCDHNYTVEDTMHQRKRIHQLEQQVEKLRKKLKTAQQRCRRQERQLEKLKEVVHFYKEKDDVSERGYVILPNDYFEIVEVPA [Q187Y] gave a THAP1 transcriptional activity of 0.809. Variant MVQSCSAYGCKNRYDKDKPVSFHKFPLTRPSLCKEWEAAVRRKNFKPTKYSSICSEHFTPDCFKRECNNKLLKENAVPTIFLCTEPHDKKEDLLEPQEQLPPPPLPPPVSQVDAAIGLLMPPLQTPVNLSVFCDHNYTVEDTMHQRKRIHQLEQQVEKLRKKLKTAQQRCRRQERQLEKLKEVVHFQKEKDDVSERGYVQLPNDYFEIVEVPA [I200Q] has a THAP1 transcriptional activity of 1.09. For MVQSCSAYGCKNRYDKDKPVSFHKFPLTRPSLCKEWEAAVRRKNFKPTKYSSICSEHFTPDCFKRECNNKLLKENAVPTIFLCTEPHDKKEDLLEPQEQLPPPPLPPPVSQVDAAIGLLMPPAQTPVNLSVFCDHNYTVEDTMHQRKRIHQLEQQVEKLRKKLKTAQQRCRRQERQLEKLKEVVHFQKEKDDVSERGYVILPNDYFEIVEVPA [L123A], the THAP1 transcriptional activity was 0.859. Work on MVQSCSAYGCKNRYDKDKPVSFHKFPLTRPSLCKEWEAAVRRKNFKPTKYSSICSEHFTPDCFKRECNNKLLKENAVPTIFLCTEPHDKKEDLLEPQEQLPPPPLPPPVSQVDAAIGLLMPPLQTPVNLSVFCDHNYTVEDTMHQRKDIHQLEQQVEKLRKKLKTAQQRCRRQERQLEKLKEVVHFQKEKDDVSERGYVILPNDYFEIVEVPA [R148D] yielded a THAP1 transcriptional activity of 0.202.
